Experimental data published in patent US20260242735A1 (UNIVERSIT T BASEL, published 2026).

Columns and labels:
Assay in all cases: flow cytometry, mutant on cells, IgG
human CD33 W22T = human CD33 W22T (human, UniProt P20138 18-364)
Experimental: (§1) An alanine scan on human CD33 was performed to the determine the residues on CD33 that are involved in binding to the antibodies investigated. […] Briefly, a mutation library of CD33 was created by high-throughput, site-directed mutagenesis. Each residue was individually mutated to alanine, with alanine codons mutated to serine. The mutant library was arrayed in 384-well microplates and transiently transfected into HEK293-T. Following transfection, cells were incubated with the indicated antibodies (IgG or Fab) at concentrations pre-determined using an independent immunofluorescence titration curve on wild type CD33. […] Binding of each antibody to each mutant clone was determined in duplicates. For each point, background fluorescence was subtracted from the raw data, which were then normalized to antibody reactivity with wild type CD33.
(§2) Antibodies were screened for binding to the human CD33 variants in IgG format. […] For each mutation, background fluorescence was subtracted from the raw data, which were then normalized to antibody reactivity with wild-type CD33.

human CD33 Q24H = human CD33 Q24H (human, UniProt P20138 18-364)
Experimental: as §1, §2

human CD33 N20Y = human CD33 N20Y (human, UniProt P20138 18-364)
Experimental: as §1, §2

human CD33 W22E = human CD33 W22E (human, UniProt P20138 18-364)
Experimental: as §1, §2

human CD33 F21S = human CD33 F21S (human, UniProt P20138 18-364)
Experimental: as §1, §2

human CD33 T42K = human CD33 T42K (human, UniProt P20138 18-364)
Experimental: as §1, §2

human CD33 N20L = human CD33 N20L (human, UniProt P20138 18-364)
Experimental: as §1, §2

human CD33 F44I = human CD33 F44I (human, UniProt P20138 18-364)
Experimental: as §1, §2

human CD33 I47S = human CD33 I47S (human, UniProt P20138 18-364)
Experimental: as §1, §2

human CD33 F44E = human CD33 F44E (human, UniProt P20138 18-364)
Experimental: as §1, §2

human CD33 P19W = human CD33 P19W (human, UniProt P20138 18-364)
Experimental: as §1, §2

human CD33 P46L = human CD33 P46L (human, UniProt P20138 18-364)
Experimental: as §1, §2

human CD33 I47V = human CD33 I47V (human, UniProt P20138 18-364)
Experimental: as §1, §2

human CD33 Q24T = human CD33 Q24T (human, UniProt P20138 18-364)
Experimental: as §1, §2

human CD33 W22N = human CD33 W22N (human, UniProt P20138 18-364)
Experimental: as §1, §2

human CD33 N20K = human CD33 N20K (human, UniProt P20138 18-364)
Experimental: as §1, §2

human CD33 P46R = human CD33 P46R (human, UniProt P20138 18-364)
Experimental: as §1, §2

human CD33 F43L = human CD33 F43L (human, UniProt P20138 18-364)
Experimental: as §1, §2

human CD33 F44T = human CD33 F44T (human, UniProt P20138 18-364)
Experimental: as §1, §2

human CD33 N20S = human CD33 N20S (human, UniProt P20138 18-364)
Experimental: as §1, §2

human CD33 P46Y = human CD33 P46Y (human, UniProt P20138 18-364)
Experimental: as §1, §2

human CD33 V25I = human CD33 V25I (human, UniProt P20138 18-364)
Experimental: as §1, §2

human CD33 P46S = human CD33 P46S (human, UniProt P20138 18-364)
Experimental: as §1, §2

human CD33 T42N = human CD33 T42N (human, UniProt P20138 18-364)
Experimental: as §1, §2

human CD33 Q24I = human CD33 Q24I (human, UniProt P20138 18-364)
Experimental: as §1, §2

human CD33 V25S = human CD33 V25S (human, UniProt P20138 18-364)
Experimental: as §1, §2

human CD33 P46F = human CD33 P46F (human, UniProt P20138 18-364)
Experimental: as §1, §2

human CD33 F44V = human CD33 F44V (human, UniProt P20138 18-364)
Experimental: as §1, §2

human CD33 V25L = human CD33 V25L (human, UniProt P20138 18-364)
Experimental: as §1, §2

human CD33 P19K = human CD33 P19K (human, UniProt P20138 18-364)
Experimental: as §1, §2

human CD33 N20D = human CD33 N20D (human, UniProt P20138 18-364)
Experimental: as §1, §2

human CD33 N20W = human CD33 N20W (human, UniProt P20138 18-364)
Experimental: as §1, §2

human CD33 P46I = human CD33 P46I (human, UniProt P20138 18-364)
Experimental: as §1, §2

human CD33 F44P = human CD33 F44P (human, UniProt P20138 18-364)
Experimental: as §1, §2

human CD33 W22P = human CD33 W22P (human, UniProt P20138 18-364)
Experimental: as §1, §2

human CD33 N20E = human CD33 N20E (human, UniProt P20138 18-364)
Experimental: as §1, §2

human CD33 F44L = human CD33 F44L (human, UniProt P20138 18-364)
human CD33 F44L, sequence (P20138 18-364 F44L limits assumed): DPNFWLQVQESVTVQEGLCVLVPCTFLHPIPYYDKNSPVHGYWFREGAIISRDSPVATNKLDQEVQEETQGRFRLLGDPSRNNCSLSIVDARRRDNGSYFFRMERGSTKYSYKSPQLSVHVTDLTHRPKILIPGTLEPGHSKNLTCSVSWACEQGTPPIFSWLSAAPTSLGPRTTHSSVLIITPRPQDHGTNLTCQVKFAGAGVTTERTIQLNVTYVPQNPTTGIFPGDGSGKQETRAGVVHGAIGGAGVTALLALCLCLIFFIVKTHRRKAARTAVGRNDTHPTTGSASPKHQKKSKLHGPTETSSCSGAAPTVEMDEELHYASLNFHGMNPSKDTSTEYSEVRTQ
Experimental: as §1, §2

human CD33 Q24I, sequence (P20138 18-364 Q24I limits assumed): as the sequence (P20138 18-364 F44L limits assumed) above, with Q7I, L27F counted along it
human CD33 T42N, sequence (P20138 18-364 T42N limits assumed): as the sequence (P20138 18-364 F44L limits assumed) above, with T25N, L27F counted along it
human CD33 N20W, sequence (P20138 18-364 N20W limits assumed): as the sequence (P20138 18-364 F44L limits assumed) above, with N3W, L27F counted along it
human CD33 V25L, sequence (P20138 18-364 V25L limits assumed): as the sequence (P20138 18-364 F44L limits assumed) above, with V8L, L27F counted along it
human CD33 F21S, sequence (P20138 18-364 F21S limits assumed): as the sequence (P20138 18-364 F44L limits assumed) above, with F4S, L27F counted along it
human CD33 P46R, sequence (P20138 18-364 P46R limits assumed): as the sequence (P20138 18-364 F44L limits assumed) above, with L27F, P29R counted along it
human CD33 F44T, sequence (P20138 18-364 F44T limits assumed): as the sequence (P20138 18-364 F44L limits assumed) above, with L27T counted along it
human CD33 V25S, sequence (P20138 18-364 V25S limits assumed): as the sequence (P20138 18-364 F44L limits assumed) above, with V8S, L27F counted along it
human CD33 W22N, sequence (P20138 18-364 W22N limits assumed): as the sequence (P20138 18-364 F44L limits assumed) above, with W5N, L27F counted along it
human CD33 W22E, sequence (P20138 18-364 W22E limits assumed): as the sequence (P20138 18-364 F44L limits assumed) above, with W5E, L27F counted along it
human CD33 F44V, sequence (P20138 18-364 F44V limits assumed): as the sequence (P20138 18-364 F44L limits assumed) above, with L27V counted along it
human CD33 Q24T, sequence (P20138 18-364 Q24T limits assumed): as the sequence (P20138 18-364 F44L limits assumed) above, with Q7T, L27F counted along it
human CD33 P46S, sequence (P20138 18-364 P46S limits assumed): as the sequence (P20138 18-364 F44L limits assumed) above, with L27F, P29S counted along it

Row | Mean % WT Binding (human CD33 W22T) [% WT binding] | Mean % WT Binding (human CD33 Q24H) [% WT binding] | Mean % WT Binding (human CD33 N20Y) [% WT binding] | Mean % WT Binding (human CD33 W22E) [% WT binding] | Mean % WT Binding (human CD33 F21S) [% WT binding] | Mean % WT Binding (human CD33 T42K) [% WT binding] | Mean % WT Binding (human CD33 N20L) [% WT binding] | Mean % WT Binding (human CD33 F44I) [% WT binding] | Mean % WT Binding (human CD33 I47S) [% WT binding] | Mean % WT Binding (human CD33 F44E) [% WT binding] | Mean % WT Binding (human CD33 P19W) [% WT binding] | Mean % WT Binding (human CD33 P46L) [% WT binding] | Mean % WT Binding (human CD33 I47V) [% WT binding] | Mean % WT Binding (human CD33 Q24T) [% WT binding] | Mean % WT Binding (human CD33 W22N) [% WT binding] | Mean % WT Binding (human CD33 N20K) [% WT binding] | Mean % WT Binding (human CD33 P46R) [% WT binding] | Mean % WT Binding (human CD33 F43L) [% WT binding] | Mean % WT Binding (human CD33 F44T) [% WT binding] | Mean % WT Binding (human CD33 N20S) [% WT binding] | Binder | further results
1 | 103 | 101 | 34.7 | 107 | 115 | 95.5 | 95.8 | 0.4 | 3.4 | 1.7 | 88.3 | 93.8 | 97.2 | 95.2 | 107 | 103 | 64.7 | 45.8 | 0.8 | 124 | Refmab #2 (antibody, human IgG1, V domains shown, Tested in IgG format; human IgG1 Fc silent (PG-LALA)) VH: QVQLVQSGAEVKKPGSSVKVSCKASGGTFSDYAISWVRQAPGQGLEWMGRIIPILGVADYAQKFQGRVTITADKSTRTAYMELSSLRSEDTAVYYCARNWADAFDIWGQGTMVTVSS VL: DIQLTQSPSSLSASVGDRVTITCRASQGISSVLAWYQQKPGKAPKLLIYDASSLESGVPSRFSGSGSGTDFTLTISSLQPEDFATYYCQQFDSSITFGQGTKLEIK | Mean % WT Binding (human CD33 P46Y): 60.1 % WT binding; Mean % WT Binding (human CD33 V25I): 114 % WT binding; Mean % WT Binding (human CD33 P46S): 102 % WT binding; Mean % WT Binding (human CD33 T42N): 98.2 % WT binding; Mean % WT Binding (human CD33 Q24I): 96.8 % WT binding; Mean % WT Binding (human CD33 V25S): 110 % WT binding; Mean % WT Binding (human CD33 P46F): 80.9 % WT binding; Mean % WT Binding (human CD33 F44V): 2.3 % WT binding; Mean % WT Binding (human CD33 V25L): 109 % WT binding; Mean % WT Binding (human CD33 P19K): 115 % WT binding; Mean % WT Binding (human CD33 N20D): 109 % WT binding; Mean % WT Binding (human CD33 N20W): 61.2 % WT binding; Mean % WT Binding (human CD33 P46I): 55.8 % WT binding; Mean % WT Binding (human CD33 F44P): 0.4 % WT binding; Mean % WT Binding (human CD33 W22P): 136 % WT binding; Mean % WT Binding (human CD33 N20E): 120 % WT binding
2 | 103 | 93.2 | 25.7 | 99.4 | 118 | 86 | 89.8 | 98.7 | 90.1 | 112 | 82.8 | 96.3 | 99 | 97.2 | 100 | 102 | 106 | 100 | 97.1 | 91.7 | Refmab #4 (antibody, human IgG1, V domains shown, Tested in IgG format; human IgG1 Fc silent (PG-LALA)) VH: QVQLVQSGAEVKKPGESVKVSCKASGYTFTNYGMNWVKQAPGQGLEWMGWINTYTGEPTYADKFQGRVTMTTDTSTSTAYMEIRNLGGDDTAVYYCARWSWSDGYYVYFDYWGQGTSVTVSS VL: DIVMTQSPDSLTVSLGERTTINCKSSQSVLDSSTNKNSLAWYQQKPGQPPKLLLSWASTRESGIPDRFSGSGSGTDFTLTIDSPQPEDSATYYCQQSAHFPITFGQGTRLEIK | Mean % WT Binding (human CD33 F44L): 100 % WT binding; Mean % WT Binding (human CD33 P46Y): 26.5 % WT binding; Mean % WT Binding (human CD33 V25I): 104 % WT binding; Mean % WT Binding (human CD33 P46S): 107 % WT binding; Mean % WT Binding (human CD33 T42N): 101 % WT binding; Mean % WT Binding (human CD33 Q24I): 86.6 % WT binding; Mean % WT Binding (human CD33 V25S): 106 % WT binding; Mean % WT Binding (human CD33 P46F): 42.4 % WT binding; Mean % WT Binding (human CD33 F44V): 96.6 % WT binding; Mean % WT Binding (human CD33 V25L): 95 % WT binding; Mean % WT Binding (human CD33 P19K): 92 % WT binding; Mean % WT Binding (human CD33 N20D): 91.3 % WT binding; Mean % WT Binding (human CD33 N20W): 52.1 % WT binding; Mean % WT Binding (human CD33 P46I): 91 % WT binding; Mean % WT Binding (human CD33 F44P): 104 % WT binding; Mean % WT Binding (human CD33 W22P): 104 % WT binding; Mean % WT Binding (human CD33 N20E): 100 % WT binding
3 | 1.3 | 7.1 | 0.6 | 1.4 | 3.4 | 103 | 9.4 | 101 | 94.9 | 33.3 | 71.2 | 0.7 | 100 | 3.9 | 3.5 | 0.8 | 1 | 111 | 83.3 | 4.6 | Refmab #3 (antibody, human IgG1, V domains shown, Tested in IgG format; human IgG1 Fc silent (PG-LALA)) VH: QVQLVQSGAEVKKPGSSVKVSCKASGYTFTDYNMHWVRQAPGQGLEWIGYIYPYNGGTGYNQKFKSKATITADESTNTAYMELSSLRSEDTAVYYCARGRPAMDYWGQGTLVTVSS VL: DIQMTQSPSSLSASVGDRVTITCRASESVDNYGISFMNWFQQKPGKAPKLLIYAASNQGSGVPSRFSGSGSGTDFTLTISSLQPDDFATYYCQQSKEVPWTFGQGTKVEIK | Mean % WT Binding (human CD33 F44L): 80 % WT binding; Mean % WT Binding (human CD33 P46Y): 0.8 % WT binding; Mean % WT Binding (human CD33 V25I): 113 % WT binding; Mean % WT Binding (human CD33 P46S): 3.5 % WT binding; Mean % WT Binding (human CD33 T42N): 95.5 % WT binding; Mean % WT Binding (human CD33 Q24I): 61.3 % WT binding; Mean % WT Binding (human CD33 V25S): 104 % WT binding; Mean % WT Binding (human CD33 P46F): 0.2 % WT binding; Mean % WT Binding (human CD33 F44V): 101 % WT binding; Mean % WT Binding (human CD33 V25L): 97.8 % WT binding; Mean % WT Binding (human CD33 P19K): 1.8 % WT binding; Mean % WT Binding (human CD33 N20D): 4.6 % WT binding; Mean % WT Binding (human CD33 N20W): 0.7 % WT binding; Mean % WT Binding (human CD33 P46I): 1.8 % WT binding; Mean % WT Binding (human CD33 F44P): 2 % WT binding; Mean % WT Binding (human CD33 W22P): 0.5 % WT binding; Mean % WT Binding (human CD33 N20E): 0.5 % WT binding
4 | 6.2 | 95.3 | 0.4 | 5 | 6.4 | 106 | 78.5 | 100 | 105 | 92.7 | 73.8 | 28.9 | 112 | 81.4 | 76.5 | 0.4 | 1 | 111 | 107 | 45.5 | Refmab #1 (antibody, human IgG1, V domains shown, Tested in IgG format; human IgG1 (Absolute Antibody hP67.6, Cat. No. Ab00283-10.0); also called hP67.6) VH: EVQLVQSGAEVKKPGSSVKVSCKASGYTITDSNIHWVRQAPGQSLEWIGYIYPYNGGTDYNQKFKNRATLTVDNPTNTAYMELSSLRSEDTAFYYCVNGNPWLAYWGQGTLVTVSS VL: DIQLTQSPSTLSASVGDRVTITCRASESLDNYGIRFLTWFQQKPGKAPKLLMYAASNQGSGVPSRFSGSGSGTEFTLTISSLQPDDFATYYCQQTKEVPWSFGQGTKVEVK | Mean % WT Binding (human CD33 F44L): 112 % WT binding; Mean % WT Binding (human CD33 P46Y): 0.9 % WT binding; Mean % WT Binding (human CD33 V25I): 113 % WT binding; Mean % WT Binding (human CD33 P46S): 21.4 % WT binding; Mean % WT Binding (human CD33 T42N): 99.4 % WT binding; Mean % WT Binding (human CD33 Q24I): 80 % WT binding; Mean % WT Binding (human CD33 V25S): 106 % WT binding; Mean % WT Binding (human CD33 P46F): 1 % WT binding; Mean % WT Binding (human CD33 F44V): 99.5 % WT binding; Mean % WT Binding (human CD33 V25L): 99.2 % WT binding; Mean % WT Binding (human CD33 P19K): 5.5 % WT binding; Mean % WT Binding (human CD33 N20D): 0.7 % WT binding; Mean % WT Binding (human CD33 N20W): 0.6 % WT binding; Mean % WT Binding (human CD33 P46I): 38.2 % WT binding; Mean % WT Binding (human CD33 F44P): 37.1 % WT binding; Mean % WT Binding (human CD33 W22P): 2.7 % WT binding; Mean % WT Binding (human CD33 N20E): 0.3 % WT binding
